Source: paper PMC9482650, “Quantitative fragmentomics allow affinity mapping of interactomes” (Nature Communications, 2022)
Positions count from the first letter of the chain named.

T1: APBA2_1, Q99767
T1 sequence (Q99767 563-664, limits assumed, looked up): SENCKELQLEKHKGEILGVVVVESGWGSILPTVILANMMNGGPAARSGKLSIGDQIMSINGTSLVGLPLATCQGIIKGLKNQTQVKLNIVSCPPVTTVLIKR

T2: DLG3_1, Q92796
T2 sequence (Q92796 125-227, limits assumed, looked up): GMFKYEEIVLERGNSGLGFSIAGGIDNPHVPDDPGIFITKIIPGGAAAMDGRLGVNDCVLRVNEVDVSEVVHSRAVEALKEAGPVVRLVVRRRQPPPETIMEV

T3: DLG3_2, Q92796
T3 sequence (Q92796 221-321, limits assumed, looked up): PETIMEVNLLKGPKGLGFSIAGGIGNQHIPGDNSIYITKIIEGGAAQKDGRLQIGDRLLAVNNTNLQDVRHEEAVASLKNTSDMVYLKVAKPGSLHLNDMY

T4: LIN7A, O14910
T4 sequence (O14910 103-200, limits assumed, looked up): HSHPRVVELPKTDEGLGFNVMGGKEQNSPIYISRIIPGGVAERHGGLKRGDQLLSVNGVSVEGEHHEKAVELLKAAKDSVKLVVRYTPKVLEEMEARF

T5: LIN7B, Q9HAP6
T5 sequence (Q9HAP6 88-185, limits assumed, looked up): T4 sequence (O14910 103-200, limits assumed, looked up) with S2A, V20I, I35V, E42D, H65Q, K77Q, D78G, K89R

T6: PDZRN3_1, Q9UPQ7
T6 sequence (Q9UPQ7 244-349, limits assumed, looked up): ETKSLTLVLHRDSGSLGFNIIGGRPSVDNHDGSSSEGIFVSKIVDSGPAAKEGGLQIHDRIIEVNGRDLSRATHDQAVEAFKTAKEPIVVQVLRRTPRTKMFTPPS

T7: RADIL, Q96JH8
T7 sequence (Q96JH8 971-1071, limits assumed, looked up): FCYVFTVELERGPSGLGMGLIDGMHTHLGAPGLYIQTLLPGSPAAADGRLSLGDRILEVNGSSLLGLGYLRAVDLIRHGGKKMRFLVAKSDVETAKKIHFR

T8: SNTA1, Q13424
T8 sequence (Q13424 82-180, limits assumed, looked up): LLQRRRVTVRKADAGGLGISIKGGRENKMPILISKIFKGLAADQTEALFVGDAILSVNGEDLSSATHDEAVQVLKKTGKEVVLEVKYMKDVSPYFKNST

T9: SNTG1, Q9NSN8
T9 sequence (Q9NSN8 52-150, limits assumed, looked up): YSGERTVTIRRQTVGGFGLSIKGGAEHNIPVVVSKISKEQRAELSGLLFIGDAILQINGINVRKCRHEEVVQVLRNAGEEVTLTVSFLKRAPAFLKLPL

T10: SNTG2, Q9NY99
T10 sequence (Q9NY99 68-166, limits assumed, looked up): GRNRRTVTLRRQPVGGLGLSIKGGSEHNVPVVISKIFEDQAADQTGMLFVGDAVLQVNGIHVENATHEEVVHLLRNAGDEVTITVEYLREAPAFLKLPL

T11: TIAM2, Q8IVF5
T11 sequence (Q8IVF5 885-986, limits assumed, looked up): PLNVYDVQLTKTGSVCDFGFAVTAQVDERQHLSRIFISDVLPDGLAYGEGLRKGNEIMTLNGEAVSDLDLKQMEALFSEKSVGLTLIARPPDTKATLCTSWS

T12: TX1BP3, O14907
T12 sequence (O14907 10-122, limits assumed, looked up): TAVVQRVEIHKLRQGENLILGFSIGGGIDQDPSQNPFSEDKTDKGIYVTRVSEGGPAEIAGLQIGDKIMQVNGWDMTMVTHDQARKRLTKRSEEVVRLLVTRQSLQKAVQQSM


Tests used:
Test in all cases: holdup assay
Parameters in all cases: key: below the threshold = too weak to quantify, mostly under pKd 3.1 to 4
Settings in all cases: plain residues with an end cap or a label only (N-terminal biotin on a linker: ado-ado)
[1] = target: T1, APBA2_1, Q99767
[2] = target: ARHGEF12, Q9NZN5-2
Chain of ARHGEF12, Q9NZN5-2 (Q9NZN5 other isoform, or with tags, fused parts or gaps): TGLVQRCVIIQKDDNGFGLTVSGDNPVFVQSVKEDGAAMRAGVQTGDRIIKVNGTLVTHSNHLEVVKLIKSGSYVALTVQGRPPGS

[3] = target: CASK, O14936
Chain of CASK, O14936 (O14936 487-570): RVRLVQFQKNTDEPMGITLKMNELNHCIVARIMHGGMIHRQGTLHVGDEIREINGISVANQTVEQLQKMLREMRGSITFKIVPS

[4] = target: T2, DLG3_1, Q92796
[5] = target: T3, DLG3_2, Q92796
[6] = target: DLG5_1, Q8TDM6
Chain of DLG5_1, Q8TDM6 (Q8TDM6 617-713): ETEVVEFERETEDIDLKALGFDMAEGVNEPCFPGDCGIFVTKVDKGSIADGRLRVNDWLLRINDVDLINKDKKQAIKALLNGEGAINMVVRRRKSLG

[7] = target: FRMPD4, Q14CM0
Chain of FRMPD4, Q14CM0 (Q14CM0 67-160): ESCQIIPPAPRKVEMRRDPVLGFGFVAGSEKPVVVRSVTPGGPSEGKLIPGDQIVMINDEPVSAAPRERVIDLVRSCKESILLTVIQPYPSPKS

[8] = target: GORASP2, Q9H8Y8
[9] = target: GRID2IP_2, A4D2P6
Chain of GRID2IP_2, A4D2P6 (A4D2P6 272-370): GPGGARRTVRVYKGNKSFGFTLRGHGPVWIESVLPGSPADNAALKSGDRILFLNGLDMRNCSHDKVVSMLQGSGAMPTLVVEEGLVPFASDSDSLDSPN

[10] = target: Inadl_1, Q8NI35
Chain of Inadl_1, Q8NI35 (Q8NI35 113-229): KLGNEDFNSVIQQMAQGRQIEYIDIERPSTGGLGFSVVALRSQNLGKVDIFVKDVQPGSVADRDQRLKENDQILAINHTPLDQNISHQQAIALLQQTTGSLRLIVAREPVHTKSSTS

[11] = target: T4, LIN7A, O14910
[12] = target: T5, LIN7B, Q9HAP6
[13] = target: MAGI1_1, Q96QZ7
Chain of MAGI1_1, Q96QZ7 (Q96QZ7 1-106): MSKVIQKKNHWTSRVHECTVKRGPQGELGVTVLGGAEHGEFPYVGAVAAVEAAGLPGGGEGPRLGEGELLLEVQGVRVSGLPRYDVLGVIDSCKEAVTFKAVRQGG

[14] = target: MAST2, Q6P0Q8
Chain of MAST2, Q6P0Q8 (Q6P0Q8 1099-1202): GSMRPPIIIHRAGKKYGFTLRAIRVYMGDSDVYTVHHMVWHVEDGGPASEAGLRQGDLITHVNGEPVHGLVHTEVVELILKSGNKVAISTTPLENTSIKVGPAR

[15] = target: NHERF4_2, Q86UT5
Chain of NHERF4_2, Q86UT5 (Q86UT5 220-308): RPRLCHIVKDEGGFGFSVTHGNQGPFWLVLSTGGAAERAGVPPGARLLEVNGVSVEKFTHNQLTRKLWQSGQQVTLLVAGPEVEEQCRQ

[16] = target: T6, PDZRN3_1, Q9UPQ7
[17] = target: PICK1, Q9NRD5
Chain of PICK1, Q9NRD5 (Q9NRD5 17-115): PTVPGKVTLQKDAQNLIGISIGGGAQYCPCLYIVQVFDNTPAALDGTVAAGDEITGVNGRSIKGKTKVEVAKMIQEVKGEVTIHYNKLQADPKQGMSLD

[18] = target: T7, RADIL, Q96JH8
[19] = target: T8, SNTA1, Q13424
[20] = target: T9, SNTG1, Q9NSN8
[21] = target: T10, SNTG2, Q9NY99
[22] = target: T11, TIAM2, Q8IVF5
[23] = target: TJP1_2, Q07157
Chain of TJP1_2, Q07157 (Q07157 181-274): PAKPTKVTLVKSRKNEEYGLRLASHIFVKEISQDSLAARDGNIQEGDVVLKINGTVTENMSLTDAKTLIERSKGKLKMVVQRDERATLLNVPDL

[24] = target: T12, TX1BP3, O14907

Binder | pKd [1] | pKd [2] | pKd [3] | pKd [4] | pKd [5] | pKd [6] | pKd [7] | pKd [8] | pKd [9] | pKd [10] | pKd [11] | pKd [12] | pKd [13] | pKd [14] | pKd [15] | pKd [16] | pKd [17] | pKd [18] | pKd [19] | pKd [20] | also measured
EKCGKEFSEF [PRKACA, P17612] | below the threshold | below the threshold | below the threshold | below the threshold | 4.11 | below the threshold | below the threshold | below the threshold | below the threshold | below the threshold | below the threshold | 3.92 | below the threshold | 5.08 | below the threshold | below the threshold | 3.91 | below the threshold | below the threshold | below the threshold | pKd [21]: below the threshold; pKd [22]: 4.13; pKd [23]: below the threshold; pKd [24]: below the threshold
EDLEDEWEVI [TECPR2, O15040] | below the threshold | below the threshold | below the threshold | below the threshold | 4.09 | below the threshold | below the threshold | 4.44 | below the threshold | below the threshold | below the threshold | 3.74 | below the threshold | 4.14 | below the threshold | below the threshold | below the threshold | below the threshold | below the threshold | below the threshold | pKd [21]: below the threshold; pKd [22]: 3.98; pKd [23]: below the threshold; pKd [24]: below the threshold
QLSFNTDTLC [ABCA2, Q9BZC7] | below the threshold | below the threshold | below the threshold | 3.61 | 4.26 | below the threshold | 4.03 | below the threshold | below the threshold | below the threshold | below the threshold | 3.66 | below the threshold | 4.79 | below the threshold | below the threshold | below the threshold | 3.49 | below the threshold | below the threshold | pKd [21]: below the threshold; pKd [22]: 4.13; pKd [23]: below the threshold; pKd [24]: 4.04
